B1: Protein phosphatase Slingshot homolog 1 (Homo sapiens), Q8WYL5 (parent)
chain: MALVTLQRSPTPSAASSSASNSELEAGSEEDRKLNLSLSESFFMVKGAALFLQQGSSPQGQRSLQHPHKHAGDLPQHLQVMINLLRCEDRIKLAVRLESAWADRVRYMVVVYSSGRQDTEENILLGVDFSSKESKSCTIGMVLRLWSDTKIHLDGDGGFSVSTAGRMHIFKPVSVQAMWSALQVLHKACEVARRHNYFPGGVALIWATYYESCISSEQSCINEWNAMQDLESTRPDSPALFVDKPTEGERTERLIKAKLRSIMMSQDLENVTSKEIRNELEKQMNCNLKELKEFIDNEMLLILGQMDKPSLIFDHLYLGSEWNASNLEELQGSGVDYILNVTREIDNFFPGLFAYHNIRVYDEETTDLLAHWNEAYHFINKAKRNHSKCLVHCKMGVSRSASTVIAYAMKEFGWPLEKAYNYVKQKRSITRPNAGFMRQLSEYEGILDASKQRHNKLWRQQTDSSLQQPVDDPAGPGDFLPETPDGTPESQLPFLDDAAQPGLGPPLPCCFRRLSDPLLPSPEDETGSLVHLEDPEREALLEEAAPPAEVHRPARQPQQGSGLCEKDVKKKLEFGSPKGRSGSLLQVEETEREEGLGAGRWGQLPTQLDQNLLNSENLNNNSKRSCPNGMEDDAIFGILNKVKPSYKSCADCMYPTASGAPEASRERCEDPNAPAICTQPAFLPHITSSPVAHLASRSRVPEKPASGPTEPPPFLPPAGSRRADTSGPGAGAALEPPASLLEPSRETPKVLPKSLLLKNSHCDKNPPSTEVVIKEESSPKKDMKPAKDLRLLFSNESEKPTTNSYLMQHQESIIQLQKAGLVRKHTKELERLKSVPADPAPPSRDGPASRLEASIPEESQDPAALHELGPLVMPSQAGSDEKSEAAPASLEGGSLKSPPPFFYRLDHTSSFSKDFLKTICYTPTSSSMSSNLTRSSSSDSIHSVRGKPGLVKQRTQEIETRLRLAGLTVSSPLKRSHSLAKLGSLTFSTEDLSSEADPSTVADSQDTTLSESSFLHEPQGTPRDPAATSKPSGKPAPENLKSPSWMSKS

Variants of: B1
Conditions: with limk1_human LIMK1, P53667
limk1_human LIMK1, P53667, sequence (P53667 whole entry, looked up): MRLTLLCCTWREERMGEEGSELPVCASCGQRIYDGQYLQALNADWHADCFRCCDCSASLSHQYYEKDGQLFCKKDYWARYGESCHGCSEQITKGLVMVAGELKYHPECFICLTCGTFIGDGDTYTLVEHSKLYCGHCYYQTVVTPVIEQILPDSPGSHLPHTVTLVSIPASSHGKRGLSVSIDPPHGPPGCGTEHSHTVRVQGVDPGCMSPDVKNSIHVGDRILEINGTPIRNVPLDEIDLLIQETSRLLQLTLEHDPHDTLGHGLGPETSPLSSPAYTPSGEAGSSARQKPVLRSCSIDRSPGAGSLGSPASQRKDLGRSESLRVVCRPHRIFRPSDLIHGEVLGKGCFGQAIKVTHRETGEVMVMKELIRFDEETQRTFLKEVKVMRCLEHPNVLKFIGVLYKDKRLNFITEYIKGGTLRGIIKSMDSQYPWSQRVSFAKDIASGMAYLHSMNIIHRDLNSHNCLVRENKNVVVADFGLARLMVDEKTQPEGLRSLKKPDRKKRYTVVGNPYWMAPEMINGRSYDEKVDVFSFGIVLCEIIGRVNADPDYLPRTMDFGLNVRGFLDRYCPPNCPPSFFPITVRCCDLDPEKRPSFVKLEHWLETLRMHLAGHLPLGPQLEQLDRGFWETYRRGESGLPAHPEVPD

Variant | effect of a mutation on the interaction
C393S | disrupting interaction
